Data: the nanobody polyreactivity screen of Harvey et al. (2022)

Assay: yeast display, Sf9 membrane polyspecificity reagent, FACS + sequencing; frameworks hold sequencing errors
In short: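 Using colony PCR, genes from sorted yeast display clones were amplified, then sequenced on MiSeq at 2 × 250 and filtered by CDR length. The clones had been stained with 10% biotinylated, detergent-solubilized Sf9 membrane reagent for 1 hour at 4 °C and sorted by FACS into low and high (top ~1%) gates on anti-HA and streptavidin fluorescence. Polyreactivity labels come from the gate of origin.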

Sequence	polyreactivity (PSR sort gate)
QVQLVESGGGLVQAGGSLRLSCAASGFIFRYYVMGWYRQAPGKERELVAAITGSGGSTYYADSVKGRFTISRDNAKNTVYLQMNSLKPEDTAVYYCAARVWPIVQNYYWGQGTQVTVSS	high polyreactivity
QVQLVESGGGLVQAGGSLRLSCAASGFIFSCYAMGWDRQAPGKERELVAAISWSGGSTYYADSVKGRFTISRDNAKNTVYLQMNSLKPEDTAVYYCAADRGYRRLFLNNVDYWGQGTQVTVSS	high polyreactivity
QVQLVESGGGLVQAGGSLRLSCAASGFIFSENAMGWYRQAPGKERELVAAISDGGGSTYYADSVKGRFTISRDNAKNTVYLQMNSLKPEDTAVYYCNAVYHPKGPSGYGYWGQGTQVTVSS	low polyreactivity
QVQLVESGGGLVQAGGSLRLSCAASGFIFSKNAMGWSRQAPGKERELVAAISYSGGSTYYADSVKGRFTISRDNAKNTVYLQMNSLKPEDTAVNYCAAGGIYAPSSEYDSWGQGTQVTVSS	low polyreactivity
QVQLVESGGGLVQAGGSLRLSCAASGFIFSKNVMGWYRQAPGKERELVARITRSGGTTYYADSVKVRFTISRDNAKNTVYLQMHRLKQEDTAVYYCAARRYGYTSITWYDYWGQGTQVTVSS	high polyreactivity
QVQLVESGGGLVQAGGSLRLSCAASGFIFSKYAMGWYRQAPGKERELVAAISWNGGSTYYADSVKGRFTISRDNAKNTVYLQMNSLKPEDTAVYYCNTGYGRIRRPGALDYWGQGTQVTVSS	high polyreactivity
QVQLVESGGGLVQAGGSLRLSCAASGFIFSLYAMGWYRQAPGKERELVAAITRGGSTKYADSVKGRFTISRDNAKNTVYLQMNSLKPEDTAVYYCAARYNGKLNWGQGTQVTVSS	high polyreactivity
QVQLVESGGGLVQAGGSLRLSCAASGFIFSLYAMGWYRQAPGTERELVAAISKRGGSTNYADSVKGRFTISRDNAKNTVYLQMNSLKPEDTAVYYCAKARPGFLYDHWGQGTQVTVSS	high polyreactivity
QVQLVESGGGLVQAGGSLRLSCAASGFIFSNNAMGWYIEAPGKERELVAVINGGGSTYYADSVKGRFTISRDNAKNTVYLQMNSLKPEDTAVYYCARKSWPKEGRVDPGYDYWGQGTQVTVSS	low polyreactivity
QVQLVESGGGLVQAGGSLRLSCAASGFIFSNNDRGLYRQAPGKDREVVAVINGGGSTYYADSVKASFTISRDNAKNTVFLQMNSLKPEDTAVYYCARKSWPKERRVDPGYDYWGQGTKVTVSS	low polyreactivity
QVQLVESGGGLVQAGGSLRLSCAASGFIFSPNAMGWYRQAPGKEREFVAAIRYSGTSTSYADSVKGRFTISRDNAKNTVYLQMNSLKPEDTAVYYCAAGRSNSYSPRRRVTYGYNYWGQGTQVTVSS	high polyreactivity
QVQLVESGGGLVQAGGSLRLSCAASGFIFSRYAMGWYRQAPGKERELVAAISWSGASTYYADSVKGRFTISRDNAKNTVYLQMNSLKPEYTAVYYCNAVVTYHYSVSSVGSRYDYWGQGTQVTVSS	high polyreactivity
QVQLVESGGGLVQAGGSLRLSCAASGFIFSRYDMGWYRQAPGKERELVAAIDWSGDSTYYADSVKGRFTISRDNAKHTVYLQMNSLQPEDTAVYYCAAYYYWGQGTQVTVSS	low polyreactivity
QVQLVESGGGLVQAGGSLRLSCAASGFIFSRYTMGWYRQAPGKERELVAAITARGSSTYYADSVKGRFTISRDIAKNTVYLQMISLKPEDTAVYYCNAGQYVFYRPYDYWGQGTQVTVSS	high polyreactivity
QVQLVESGGGLVQAGGSLRLSCAASGFIFSSYAMGWYRQAPGKEREFVAAIDWNSTSTYYADSVKGRFTISRDNAKNTVYLQMNSLKPEDTAVYYCAADWVGYFVYPYDYWGQGTQVTVSS	high polyreactivity
QVQLVESGGGLVQAGGSLRLSCAASGFIFSSYAMGWYRQAPGKERELVAAISKSGDRTSYADSVKGRFTISRDNAKNTVYLQMNSLKPEDTAVYYCAKDRLYRTKKYRDMYYWGQGTQVTVSS	high polyreactivity
QVQLVESGGGLVQAGGSLRLSCAASGFIFSVNAMGWYRQAPGKERELVAAISKRGGRTYYADSVKGRFTISRDNAKNTVYLQMNSLKPEDTAVYYCAADQPTLAYPGGYSAGMDYWGQGTQVTVSS	high polyreactivity
